# Measured values from patent US20170260530, “APTAMERS FOR PURIFYING AND QUANTIFYING GELSOLIN AND ITS VARIANTS” (Council of Scientific & Industrial Research, published 2017).
# B1: 10.10R (ssDNA)
# DNA: TCAAGTGGTCATGTACTAGTCAAGCACTTTCGCTGCTCGCTGGCGCCGCGCCCATCATATGTCCTTCTCTTCCCTA
# B2: L16F (ssDNA)
# DNA: TAGGGAAGAGAAGGACATATGATAGGGGGATAGGAGGGGGTGGGATTGGGGGATTGACTAGTACATGACCACTTGA
# B3: L26F (ssDNA)
# DNA: TAGGGAAGAGAAGGACATATGATGGGGCACTGGAGGGTGGGGGAGCGGGGGCGGTTGACTAGTACATGACCACTTGA
# B4: L24F (ssDNA)
# DNA: TAGGGAAGAGAAGGACATATGATCGGGGGGCGGGTATTGGGGGCCGGGGGGATTGACTAGTACATGACCACTTGA
# Legend:
# [1] = molecular target: T1, Gelsolin (GSN) (Homo sapiens, UniProt P06396 SEQ:28-782); test: microtiter (ELISA-type) assay, immobilized aptamer 1.56-100 nM, 100 nM gelsolin; 25 mM Tris pH 8, 150 mM NaCl, 2 mM CaCl2, 5 mM MgCl2, 10 mM KCl; RT; details: tags: tagless; expressed from pET303/CT-His vector in E. coli BL21(DE3); label: biotin
# [2] = molecular target: T1, Gelsolin (GSN); test: microtiter (ELISA-type) assay, immobilized aptamer, 100 nM gelsolin; selection buffer with 2 mM CaCl2, 5 mM MgCl2; RT; details: tags: tagless; expressed from pET303/CT-His vector in E. coli BL21(DE3); label: biotin
# T1 sequence (P06396 28-782): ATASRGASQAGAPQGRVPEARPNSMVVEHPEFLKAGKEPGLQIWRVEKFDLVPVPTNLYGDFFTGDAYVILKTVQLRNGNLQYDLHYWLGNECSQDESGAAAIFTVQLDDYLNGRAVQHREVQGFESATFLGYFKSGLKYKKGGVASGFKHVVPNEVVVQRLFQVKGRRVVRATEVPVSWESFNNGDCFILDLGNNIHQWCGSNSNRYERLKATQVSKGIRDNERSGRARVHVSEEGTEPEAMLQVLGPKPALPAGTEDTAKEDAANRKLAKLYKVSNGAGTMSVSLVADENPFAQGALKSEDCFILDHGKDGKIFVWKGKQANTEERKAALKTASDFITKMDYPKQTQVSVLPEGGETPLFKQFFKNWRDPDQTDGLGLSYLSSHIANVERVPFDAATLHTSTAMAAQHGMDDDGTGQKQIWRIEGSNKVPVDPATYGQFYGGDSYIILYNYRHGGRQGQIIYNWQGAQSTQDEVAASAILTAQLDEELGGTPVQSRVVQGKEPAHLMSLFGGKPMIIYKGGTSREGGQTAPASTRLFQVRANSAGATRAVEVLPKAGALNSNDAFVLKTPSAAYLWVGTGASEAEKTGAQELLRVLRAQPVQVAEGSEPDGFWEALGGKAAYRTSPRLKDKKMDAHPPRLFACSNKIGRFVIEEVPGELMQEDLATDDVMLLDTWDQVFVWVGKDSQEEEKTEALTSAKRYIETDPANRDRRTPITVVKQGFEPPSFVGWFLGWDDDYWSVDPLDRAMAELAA
Binder,Kd [1],Kd [2]
B1,7.2 nM,
B2,,12.7 nM
B3,,15.3 nM
B4,,15.7 nM
